± gives the standard deviation of the averaged measurements.
Test system: ATP
Experiment: switch fluorescence ratio, 500 uM ATP over buffer (Cy3 cluster intensity, sum of 5 cycles each) (fold (ratio)); higher = stronger signal-on switching upon ATP binding; sequences stand for … in TCGTCGGCAGCGTCAGATGTGTATAAGAGACAGTTTTTTTTTTTTTTTTTTTTTTTTT…TC
Conditions: aptamer strand: ATP DNA aptamer (quencher-CACCTGGGGGAGTATTGCGGAGGAAGG + anchor), 100 nM annealed; ATP concentration: 500 uM
Summary of the method: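 Switching-strand clusters labelled with Cy3 on a modified Illumina MiSeq flow-cell were annealed to 100 nM quencher-labelled ATP aptamer, imaged in selection buffer, and re-imaged after 15 min with 500 uM ATP at 22 °C. This was done over five cycles with NaOH stripping and re-annealing in between. The fluorescence ratio is summed target-cycle over summed buffer-cycle Cy3 intensity per cluster, averaged per switch-domain sequence, excluding clusters outside 100-1000 RFU.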
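Further: ATP exposure 15 min at 22 °C before imaging.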

Row | Sequence | switch fluorescence ratio
1 | AAACGGAG | 1.007 ± 0.0081
2 | TGAAGTAAGC | 1.09 ± 0.12
3 | CGTACGAAGG | 0.971 ± 0.028
4 | TTTTAGATAG | 1.06 ± 0.11
5 | TAATTACTCA | 1.045 ± 0.01
6 | CAAACGCCGA | 1.103 ± 0.0045
7 | TCTTGCATAG | 1.11 ± 0.025
8 | AGTAAAAAAA | 0.987 ± 0.033
9 | AATACTGGTT | 1.04 ± 0.021
10 | TATTGTGGTT | 1 ± 0.031
11 | TTTTCTTGAA | 0.9852 ± 0.0038
12 | TTGGAAATTA | 1.036 ± 0.0082
13 | GGCTTCTGAT | 0.999 ± 0.022
14 | GTTTTTAAGG | 1.02 ± 0.032
15 | AGTATTTTTA | 1.01 ± 0.012
16 | CCCAGGTAGC | 4.65 ± 0.43
17 | CGTGGAGGTG | 1.07 ± 0.036
18 | TGAGTACGGG | 0.9844 ± 0.0025
19 | GCATAAAGGA | 0.9684 ± 0.0075
20 | ATGTTTTATC | 0.994 ± 0.016
21 | GTGTTGATTT | 0.9625 ± 0.0065
22 | ATGTGTAACA | 0.97 ± 0.037
23 | ATTAATCAGT | 1.002 ± 0.0083

Row | Sequence | switch fluorescence ratio
24 | TGGGTGTGTT | 0.995 ± 0.028
25 | AGATCTATAC | 1.018 ± 0.0096
26 | TATGGGGATT | 0.991 ± 0.037
27 | TTTGTATTGG | 0.998 ± 0.035
28 | TTTATGCTTT | 1.01 ± 0.024
29 | TTTTGAGATA | 0.97489 ± 3.4e-05
30 | TTTACCCAGT | 1.04 ± 0.066
31 | GCGGGGGTCC | 1.17 ± 0.31
32 | GGTTTTAGTT | 0.986 ± 0.03
33 | ACCCCCCTGT | 1.37 ± 0.41
34 | CTCTGGGGGC | 1.1 ± 0.062
35 | GGATGTGCG | 0.961 ± 0.05
36 | CTGCATAGGT | 1.31 ± 0.38
37 | CGTAGATACA | 1.03 ± 0.036
38 | TGCCTTTCGG | 0.9909 ± 0.0062
39 | GAGTACTAGT | 1.015 ± 0.0072
40 | AGTGCAGGCA | 1 ± 0.034
41 | TTGTTGGAGG | 0.982 ± 0.025
42 | TGGGTCTACT | 0.9761 ± 0.0084
43 | CCCTGTAGGA | 1.04 ± 0.088
44 | TATGGGGTGG | 1.01 ± 0.015
45 | TCGGGGAATA | 1.02 ± 0.014
46 | TAGTTGGGCG | 0.984 ± 0.098

Row | Sequence | switch fluorescence ratio
47 | CAATTGCGTA | 0.981 ± 0.068
48 | AAGGGTTAT | 0.995 ± 0.017
49 | AAGTATGGTA | 0.965 ± 0.075
50 | TTCATGTGGA | 1.017 ± 0.0047
51 | TCCATGATTG | 0.973 ± 0.037
52 | TCGGGGTGTA | 1 ± 0.011
53 | TGGGGTCTCT | 0.985 ± 0.042
54 | GAGAAAGCAG | 0.977 ± 0.025
55 | CAAGTGTTGG | 1.01 ± 0.05
56 | CCCAAGGGCA | 1.02 ± 0.051
57 | TTACGGTGTT | 1.1 ± 0.099
58 | TGAGGGATGG | 1.01 ± 0.017
59 | ATATAAGCGG | 1.02 ± 0.047
60 | AGCTGATGGG | 1.01 ± 0.014
61 | AGGGTAGTTG | 0.994 ± 0.019
62 | TTTGAATTTT | 0.998 ± 0.024
63 | AACTTTTTGG | 0.99 ± 0.013
64 | ACGGGATGGG | 1.062 ± 0.01
65 | AATGGGAAGT | 0.991 ± 0.019
66 | AAAATGGGGT | 1.02 ± 0.052
67 | TTAAGCATGT | 1.01 ± 0.017
68 | GGTTTGGTG | 1.006 ± 0.0058
69 | TTGAGCCGGT | 1 ± 0.045

Row | Sequence | switch fluorescence ratio
70 | AAATAAGGAG | 1.02 ± 0.033
71 | GAAGGGCTGT | 0.993 ± 0.029
72 | GGAGGGGAGT | 0.999 ± 0.014
73 | TTATAAATAC | 1.91 ± 0.7
74 | CAATCGACCT | 1.27 ± 0.046
75 | CGGATTTATC | 1.01 ± 0.033
76 | TTATTCGTTT | 0.98 ± 0.03
77 | GATGGGAGGG | 0.99 ± 0.027
78 | CGTATGGTTA | 1.02 ± 0.038
79 | CCATGTTGAT | 1 ± 0.039
80 | ATGAAATAGG | 0.98 ± 0.031
81 | AGTGGAGGAC | 1.02 ± 0.012
82 | GAGTTCGAGG | 1.02 ± 0.037
83 | TGATGTGGGG | 0.97 ± 0.029
84 | AGGATGTAAA | 1.025 ± 0.0045
85 | TAAATAATTT | 1.01 ± 0.028
86 | GGAGAAGGGT | 0.9967 ± 0.0047
87 | TGGCGCCGGT | 0.995 ± 0.01
88 | ACCCTGTTGC | 1.12 ± 0.072
89 | GGCTTGGAAT | 0.989 ± 0.011
90 | ATGGTTCCCT | 1.01 ± 0.02
91 | TGAGCGTG | 0.9816 ± 0.0078
92 | CGTGAAAGTA | 0.996 ± 0.049

Row | Sequence | switch fluorescence ratio
93 | ATGGACTATC | 1.03 ± 0.046
94 | GCGCTTTTGG | 0.986 ± 0.048
95 | AGTAGGTAGT | 0.968 ± 0.019
96 | GCTTGGGGTC | 0.953 ± 0.011
97 | GGTAGATGCG | 1.03 ± 0.04
98 | AAGTTGGTGG | 0.987 ± 0.033
99 | TGGGGTCAGG | 1.016 ± 0.0086
100 | TCGACTGAGG | 1.03 ± 0.031
101 | TGGATATTTT | 0.993 ± 0.044
102 | AAGGTGATAG | 1 ± 0.019
103 | CCGGGCCTGC | 1.11 ± 0.014
104 | TATTTTTAGT | 1 ± 0.027
105 | GAATTTCGGT | 1.053 ± 0.0077
106 | AGGGTAAGGA | 1.09 ± 0.18
107 | ATGCAATCTT | 1.11 ± 0.06
108 | TGAAGGTTAC | 1.02 ± 0.012
109 | GTTTGCTACG | 1.005 ± 0.004
110 | AGGTACTCGA | 1.05 ± 0.02
111 | AGGTAGATAG | 0.948 ± 0.0068
112 | ATGCGGGTG | 1.04 ± 0.061
113 | AAGAGTTGTA | 1.01 ± 0.019
114 | TGGAAGTCGG | 0.984 ± 0.022
115 | AGGAGTCTAT | 0.9774 ± 0.0094

Row | Sequence | switch fluorescence ratio
116 | GACATTATGC | 1.03 ± 0.014
117 | CAGGCAGATG | 1.01 ± 0.015
118 | TTCCTTGGTA | 1.04 ± 0.038
119 | TTCGAAGCAC | 2.74 ± 1.7
120 | AGGAATGGCT | 0.985 ± 0.017
121 | TCGGTTGGGT | 0.984 ± 0.038
122 | CGGACTGTCA | 1.02 ± 0.016
123 | TCGATGGCGC | 1.02 ± 0.023
124 | AACCGCCCTT | 1.27 ± 0.15
125 | AAGGTTATGC | 0.987 ± 0.039
126 | GGACTATGCT | 0.962 ± 0.011
127 | TGGGAAGAGG | 1.01 ± 0.026
128 | TATTTACCGC | 1.13 ± 0.034
129 | CGGGTTAGCC | 0.998 ± 0.021
130 | GGATGCAATG | 1.16 ± 0.025
131 | GGGGTGTCTT | 0.992 ± 0.031
132 | GGAGAGGACG | 1.07 ± 0.09
133 | ATATTATCAA | 1 ± 0.012
134 | TATACTATGG | 1.01 ± 0.038
135 | CTACAATGGA | 1 ± 0.029
136 | CGTTTATGGT | 0.967 ± 0.022
137 | TAAATTGATG | 1.036 ± 0.0049
138 | GTCCACAGGT | 1.69 ± 0.056

Row | Sequence | switch fluorescence ratio
139 | TCGGCGTCAG | 0.9817 ± 0.0041
140 | ATCGGGGAGG | 1.01 ± 0.0081
141 | TATGTTGGGT | 1.02 ± 0.037
142 | GCCATGTTGG | 1.004 ± 0.0033
143 | GTTGAGTAGC | 1.02 ± 0.042
144 | GGGTCGCAGA | 1.04 ± 0.058
145 | ACGGGCAGGG | 1.03 ± 0.041
146 | GGCATTTTAT | 1.01 ± 0.061
147 | AATTTGTCCG | 0.992 ± 0.041
148 | TACGCCATAT | 1.46 ± 0.18
149 | GCTTGCCTAG | 0.962 ± 0.038
150 | ATCGGCGGGG | 0.995 ± 0.031
151 | GGCCTGGTTT | 1.03 ± 0.057
152 | CCTGAGTTTG | 1.01 ± 0.035
153 | CAGGACTGGG | 1.01 ± 0.0056
154 | TTCCAATTAG | 0.968 ± 0.059
155 | TTTTTTGTGG | 0.978 ± 0.031
156 | AGTTGTACAA | 1.012 ± 0.01
157 | TGAGGGGTCA | 1.002 ± 0.0076
